Data reported in paper PMC3229523, “Identification of Lactoferricin B Intracellular Targets Using an Escherichia coli Proteome Chip” (PLoS ONE, 2011).
Ends that are not written are not given here. * marks the point of attachment. Biotin = O=C1N[C@H]2[C@H](CS[C@H]2CCCCC(=O)*)N1

Columns and labels:
Assay in all cases: peptide or protein array; E. coli proteome chip: purified His-tagged proteins printed in duplicate on Fullmoon slides, blocked with 1% BSA; 10 nM N-terminal biotinylated LfcinB with 1% BSA, room temperature, 1 h; detected with DyLight 649-labeled streptavidin, ratio to DyLight 549-labeled anti-His antibody; ProCAT normalisation, local cut-off; triplicate chips
Conditions in all cases: both partners purified
YchA = target: T1, YchA (E. coli K-12, UniProt P0AGM5 1-269)
T1 construct: YchA, E. coli K-12
T1 sequence (looked up): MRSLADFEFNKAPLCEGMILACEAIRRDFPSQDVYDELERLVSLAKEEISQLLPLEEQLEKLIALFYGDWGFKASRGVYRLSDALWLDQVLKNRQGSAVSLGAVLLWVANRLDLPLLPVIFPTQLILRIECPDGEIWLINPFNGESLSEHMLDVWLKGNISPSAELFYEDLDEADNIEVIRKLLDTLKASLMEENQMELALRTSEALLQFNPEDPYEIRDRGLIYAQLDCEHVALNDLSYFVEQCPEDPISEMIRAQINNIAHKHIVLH

YjdI = target: T2, YjdI (E. coli K-12, UniProt P0AF59 1-76)
T2 construct: YjdI, E. coli K-12
T2 sequence (looked up): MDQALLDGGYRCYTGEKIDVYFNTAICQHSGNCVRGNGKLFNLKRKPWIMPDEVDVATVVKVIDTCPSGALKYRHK

YjeJ = target: T3, YjeJ (E. coli K-12, UniProt P39279 1-289)
T3 construct: YjeJ, E. coli K-12
T3 sequence (looked up): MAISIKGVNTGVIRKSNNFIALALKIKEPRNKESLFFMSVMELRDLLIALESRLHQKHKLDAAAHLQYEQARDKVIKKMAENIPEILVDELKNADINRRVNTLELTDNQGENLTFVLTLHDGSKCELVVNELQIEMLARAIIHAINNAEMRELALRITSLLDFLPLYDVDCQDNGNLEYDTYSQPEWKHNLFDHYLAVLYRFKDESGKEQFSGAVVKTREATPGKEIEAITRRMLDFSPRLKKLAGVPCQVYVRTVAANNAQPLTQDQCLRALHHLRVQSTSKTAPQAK

YbbN = target: T4, YbbN (E. coli K-12, UniProt P77395 1-284)
T4 construct: YbbN, E. coli K-12
T4 sequence (looked up): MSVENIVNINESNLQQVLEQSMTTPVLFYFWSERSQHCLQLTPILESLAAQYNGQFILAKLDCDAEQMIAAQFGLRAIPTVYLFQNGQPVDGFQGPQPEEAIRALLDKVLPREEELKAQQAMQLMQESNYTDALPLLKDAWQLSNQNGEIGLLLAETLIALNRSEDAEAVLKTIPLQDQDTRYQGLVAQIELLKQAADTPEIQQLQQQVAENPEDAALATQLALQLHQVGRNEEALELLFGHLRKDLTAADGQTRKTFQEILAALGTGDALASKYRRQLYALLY

Sun = target: T5, Sun (E. coli K-12, UniProt P36929 1-429)
T5 construct: Sun, E. coli K-12
T5 sequence (looked up): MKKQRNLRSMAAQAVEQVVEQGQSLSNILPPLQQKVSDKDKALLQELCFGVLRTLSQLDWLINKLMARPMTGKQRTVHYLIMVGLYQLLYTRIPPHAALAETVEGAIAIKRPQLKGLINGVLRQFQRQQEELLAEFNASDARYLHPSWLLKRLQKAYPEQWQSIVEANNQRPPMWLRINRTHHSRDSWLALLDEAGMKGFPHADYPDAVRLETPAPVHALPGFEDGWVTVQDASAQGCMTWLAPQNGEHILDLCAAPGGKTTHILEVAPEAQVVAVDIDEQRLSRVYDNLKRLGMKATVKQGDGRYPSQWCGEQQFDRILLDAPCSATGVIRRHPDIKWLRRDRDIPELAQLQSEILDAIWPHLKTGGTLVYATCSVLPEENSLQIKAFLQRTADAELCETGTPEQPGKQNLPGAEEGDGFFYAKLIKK

RcsB = target: T6, RcsB (E. coli K-12, UniProt P0DMC7 1-216)
T6 construct: RcsB, E. coli K-12
T6 sequence (looked up): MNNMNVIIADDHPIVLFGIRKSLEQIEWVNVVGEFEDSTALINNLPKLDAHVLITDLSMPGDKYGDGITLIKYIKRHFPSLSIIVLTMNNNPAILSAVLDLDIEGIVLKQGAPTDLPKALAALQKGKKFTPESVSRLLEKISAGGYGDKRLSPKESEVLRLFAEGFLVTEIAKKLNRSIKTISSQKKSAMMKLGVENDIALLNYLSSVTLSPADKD

YqiA = target: T7, YqiA (E. coli K-12, UniProt P0A8Z7 1-193)
T7 construct: YqiA, E. coli K-12
T7 sequence (P0A8Z7 whole entry): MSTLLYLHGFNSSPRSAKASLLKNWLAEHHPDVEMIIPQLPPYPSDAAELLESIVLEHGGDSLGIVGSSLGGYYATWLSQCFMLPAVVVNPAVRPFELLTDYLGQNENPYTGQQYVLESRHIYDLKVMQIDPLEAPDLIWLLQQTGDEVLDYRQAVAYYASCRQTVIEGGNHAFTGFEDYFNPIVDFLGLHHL

Measured: binding result

B1: N-terminal biotinylated Lactoferricin B (peptide, UniProt P24627 36-60, looked up)
peptide: Biotin-FKCRRWQWRMKKLGAPSITCVRRAF
modifications: ends and bridges not checked
notes: lactoferricin B (LfcinB), cationic antimicrobial peptide of 25 amino acids; also called biotinylated LfcinB; biotin-labeled LfcinB; source: bought: Kelowna Inc
binds: all assays above
